Test results as given in patent US20180057589A1.

Assays:
[1] = molecular target: human Notch1 NRR protein (human) (UniProt P46531); assay: SPR
[2] = molecular target: mouse Notch1 NRR protein (mouse) (UniProt Q01705); assay: SPR
[3] = molecular target: Notch1 on stably transfected NIH-3T3 cells; assay: cell-based or functional assay
[4] = molecular target: human Notch1 NRR protein (human) (UniProt P46531); assay: ELISA on captured Flag-tagged NRR protein
[5] = molecular target: mouse Notch1 NRR protein (mouse) (UniProt Q01705); assay: ELISA on captured Flag-tagged NRR protein
[6] = molecular target: N-myc-Notch1 on K1-CHO cells; assay: FACS dot plot α-Myc (PE) against α-NRR1 (FITC), K1-CHO myc-N1 cells, +Dox, panel 2 (other quadrants: upper left 17.1, lower left 26.2, lower right 0.077)
[7] = molecular target: N-myc-Notch2 on K1-CHO cells; assay: FACS dot plot α-Myc (PE) against α-NRR1 (FITC), K1-CHO myc-N2 cells, +Dox, panel 3 (other quadrants: upper left 58.6, lower left 41.3, lower right 0.026)
[8] = molecular target: hamster Notch2, endogenous on K1-CHO cells (hamster); assay: FACS dot plot α-Myc (PE) against α-NRR1 (FITC), untransfected K1-CHO cells, +Dox, panel 1 (other quadrants: upper left 0.15, upper right 0.034, lower left 99.7)
[9] = molecular target: hamster Notch2, endogenous on K1-CHO cells (hamster); assay: FACS dot plot α-Myc (PE) against α-NRR1 (FITC), untransfected K1-CHO cells, -Dox, panel 4 (other quadrants: upper left 0.13, upper right 0.041, lower left 99.7)
[10] = molecular target: N-myc-Notch1 on K1-CHO cells; assay: FACS dot plot α-Myc (PE) against α-NRR1 (FITC), K1-CHO myc-N1 cells, -Dox (transgene not induced), panel 5 (other quadrants: upper left 0.72, lower left 99, lower right 0.14)
[11] = molecular target: N-myc-Notch2 on K1-CHO cells; assay: FACS dot plot α-Myc (PE) against α-NRR1 (FITC), K1-CHO myc-N2 cells, -Dox (leaky expression per the text), panel 6 (other quadrants: upper left 18, lower left 81.8, lower right 0.1)

Sequence of human Notch1 NRR protein (human) (P46531 1446-1733 limits assumed): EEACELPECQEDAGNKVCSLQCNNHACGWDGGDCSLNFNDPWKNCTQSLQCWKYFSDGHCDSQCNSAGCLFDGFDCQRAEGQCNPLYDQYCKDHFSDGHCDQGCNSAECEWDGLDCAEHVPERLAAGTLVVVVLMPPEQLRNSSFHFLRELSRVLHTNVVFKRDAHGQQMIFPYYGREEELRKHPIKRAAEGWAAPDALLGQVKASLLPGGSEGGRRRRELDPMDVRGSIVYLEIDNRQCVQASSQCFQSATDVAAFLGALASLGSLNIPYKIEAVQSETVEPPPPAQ
Sequence of mouse Notch1 NRR protein (mouse) (Q01705 1446-1723 limits assumed): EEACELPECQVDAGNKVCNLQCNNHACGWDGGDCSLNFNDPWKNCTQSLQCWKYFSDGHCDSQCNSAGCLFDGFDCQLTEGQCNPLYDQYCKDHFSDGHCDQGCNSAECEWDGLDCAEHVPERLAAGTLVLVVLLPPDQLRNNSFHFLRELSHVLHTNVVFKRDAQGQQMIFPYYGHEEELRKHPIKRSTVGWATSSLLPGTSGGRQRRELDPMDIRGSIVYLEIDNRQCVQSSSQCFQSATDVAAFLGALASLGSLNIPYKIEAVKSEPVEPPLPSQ

Question: What does the source list for anti-NRR1 (antibody)?
Answer: Kd [1]: 3 nM; Kd [2]: 3 nM; Notch reporter (luciferase) in Jag1 co-culture assay: antibody concentration for complete inhibition of Notch1 signaling [3]: 80 to 400 ng/mL; EC50 [4]: 0.1 µg/mL; EC50 [5]: 0.1 µg/mL; % of cells in the α-Myc-positive / α-NRR1-positive quadrant (upper right) [6]: 56.6%; % of cells in the α-Myc-positive / α-NRR1-positive quadrant (upper right) [7]: 0.064%; % of cells in the α-Myc-negative / α-NRR1-positive quadrant (lower right) [8]: 0.082%; % of cells in the α-Myc-negative / α-NRR1-positive quadrant (lower right) [9]: 0.12%; % of cells in the α-Myc-positive / α-NRR1-positive quadrant (upper right) [10]: 0.097%; % of cells in the α-Myc-positive / α-NRR1-positive quadrant (upper right) [11]: 0.13%
